# Results: the supplement of paper PMC9112550, “Optimization of the antimicrobial peptide Bac7 by deep mutational scanning” (BMC Biology, 2022)
# Tested on: Escherichia coli TOP10
# Assay: shrunken log2 fold change of peptide-encoding DNA abundance (4.5 h post-induction vs induction); higher = less antimicrobial activity (less host growth inhibition)
# Conditions: time post-induction: 4.5 h; library: site-saturation at positions 5, 18, 19, 20
# 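Further: peptides expressed intracellularly from a pBAD plasmid library in pooled LB shake-flask culture, induced with 0.3% L-arabinose, DNA abundance read by NGS, three biological replicates, DESeq2 with apeglm shrinkage.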
row,Sequence,shrunken log2 fold change
1,RRIRKRPPRLPRPRPRPEMSPRP,0.325
2,RRIRCRPPRLPRPRPRPVQKPRP,-0.0201
3,RRIRCRPPRLPRPRPRPLFQPRP,-0.417
4,RRIRYRPPRLPRPRPRPCTLPRP,0.0191
5,RRIRNRPPRLPRPRPRPDPRPRP,0.562
6,RRIRHRPPRLPRPRPRPCPMPRP,-0.0207
7,RRIRFRPPRLPRPRPRPFTMPRP,-0.817
8,RRIRWRPPRLPRPRPRPPDHPRP,0.594
9,RRIRTRPPRLPRPRPRPHNNPRP,-0.894
10,RRIRNRPPRLPRPRPRPTAYPRP,-0.184
11,RRIRVRPPRLPRPRPRPYIMPRP,-0.937
12,RRIRTRPPRLPRPRPRPTVIPRP,-0.17
13,RRIRQRPPRLPRPRPRPLTCPRP,-0.539
14,RRIRMRPPRLPRPRPRPMHAPRP,0.327
15,RRIRVRPPRLPRPRPRPPQCPRP,-0.143
16,RRIRNRPPRLPRPRPRPHYRPRP,-0.0488
17,RRIRVRPPRLPRPRPRPGFIPRP,-0.202
18,RRIRCRPPRLPRPRPRPNQTPRP,-0.185
19,RRIRARPPRLPRPRPRPRPSPRP,0.622
20,RRIRVRPPRLPRPRPRPFRGPRP,0.0214
21,RRIRCRPPRLPRPRPRPSMVPRP,-0.312

row,Sequence,shrunken log2 fold change
1,RRIRWRPPRLPRPRPRPRLMPRP,0.44
2,RRIRKRPPRLPRPRPRPDECPRP,-0.0821
3,RRIRTRPPRLPRPRPRPESLPRP,-0.00987
4,RRIRVRPPRLPRPRPRPHPHPRP,-0.161
5,RRIRMRPPRLPRPRPRPDPPPRP,1.23
6,RRIRQRPPRLPRPRPRPEHKPRP,-0.00178
7,RRIRFRPPRLPRPRPRPNDGPRP,-0.222
8,RRIRHRPPRLPRPRPRPEKRPRP,-0.01
9,RRIRGRPPRLPRPRPRPNQFPRP,0.0521
10,RRIRLRPPRLPRPRPRPPRLPRP,0.46
11,RRIRKRPPRLPRPRPRPNCSPRP,0.149
12,RRIRERPPRLPRPRPRPFNPPRP,-0.442
13,RRIRIRPPRLPRPRPRPPSIPRP,0.122
14,RRIRRRPPRLPRPRPRPKCTPRP,-0.373
15,RRIRGRPPRLPRPRPRPYFKPRP,-0.366
16,RRIRPRPPRLPRPRPRPWGPPRP,0.368
17,RRIRKRPPRLPRPRPRPEKAPRP,0.0283
18,RRIRSRPPRLPRPRPRPMERPRP,-0.0898
19,RRIRLRPPRLPRPRPRPMDLPRP,-0.171
20,RRIRYRPPRLPRPRPRPTQYPRP,-0.531
21,RRIRDRPPRLPRPRPRPIWQPRP,0.211

row,Sequence,shrunken log2 fold change
1,RRIRWRPPRLPRPRPRPIVLPRP,-0.628
2,RRIRSRPPRLPRPRPRPYKEPRP,-0.0146
3,RRIRARPPRLPRPRPRPEFWPRP,1.12
4,RRIRKRPPRLPRPRPRPWSHPRP,0.0601
5,RRIRFRPPRLPRPRPRPRKKPRP,0.14
6,RRIRFRPPRLPRPRPRPRKQPRP,0.415
7,RRIRCRPPRLPRPRPRPEYWPRP,-0.0559
8,RRIRTRPPRLPRPRPRPHGFPRP,-0.0139
9,RRIRYRPPRLPRPRPRPYKRPRP,-2.31
10,RRIRSRPPRLPRPRPRPPFRPRP,0.193
11,RRIRMRPPRLPRPRPRPHKNPRP,0.195
12,RRIRIRPPRLPRPRPRPIRWPRP,0.0124
13,RRIRSRPPRLPRPRPRPGRQPRP,-0.00462
14,RRIRMRPPRLPRPRPRPLEVPRP,0.405
15,RRIRPRPPRLPRPRPRPVHPPRP,0.127
16,RRIRYRPPRLPRPRPRPYWVPRP,-0.538
17,RRIRRRPPRLPRPRPRPYPLPRP,0.015
18,RRIRERPPRLPRPRPRPMVTPRP,-0.0939
19,RRIRARPPRLPRPRPRPGVGPRP,0.805
20,RRIRGRPPRLPRPRPRPIIEPRP,0.863
21,RRIRHRPPRLPRPRPRPFSYPRP,-0.28

row,Sequence,shrunken log2 fold change
1,RRIRQRPPRLPRPRPRPKSTPRP,-0.228
2,RRIRRRPPRLPRPRPRPAKEPRP,0.0389
3,RRIRLRPPRLPRPRPRPVHMPRP,-0.0691
4,RRIRNRPPRLPRPRPRPLEAPRP,-0.00641
5,RRIRWRPPRLPRPRPRPLHRPRP,0.0218
6,RRIRNRPPRLPRPRPRPYVHPRP,-0.253
7,RRIRVRPPRLPRPRPRPTQGPRP,0.291
8,RRIRPRPPRLPRPRPRPEKKPRP,-0.044
9,RRIRSRPPRLPRPRPRPHHHPRP,-0.736
10,RRIRKRPPRLPRPRPRPYQFPRP,-0.17
11,RRIRIRPPRLPRPRPRPPVYPRP,-0.288
12,RRIRCRPPRLPRPRPRPHKWPRP,-0.174
13,RRIRHRPPRLPRPRPRPVDGPRP,-0.00557
14,RRIRKRPPRLPRPRPRPCTGPRP,0.0143
15,RRIRERPPRLPRPRPRPWMGPRP,0.299
16,RRIRMRPPRLPRPRPRPFNRPRP,-0.00136
17,RRIRVRPPRLPRPRPRPCEHPRP,-0.0331
18,RRIRKRPPRLPRPRPRPMPQPRP,0.0873
19,RRIRMRPPRLPRPRPRPALHPRP,0.791
